Publication PMC7427093, “Revising the mechanism of p75NTR activation: intrinsically monomeric state of death domains invokes the "helper" hypothesis” (Scientific Reports, 2020)
“And” between values parts separate entries of the source, which are not always exact repeats. Identical values can stand only once.

What was measured:
[1] = biological target: p75NTR death domain (Homo sapiens) (UniProt P08138); assay: homo-FRET; conditions: cited from earlier work
[2] = biological target: the molecule itself; assay: cross-linking; spontaneous disulfide formation of purified protein in DMPC/CHAPS q = 1 bicelles, LPR 1,000:1 (repeated at 200:1), without reducing agent, room temperature; non-reducing SDS-PAGE at several time points; irreversible second-order kinetics

p75NTR death domain, sequence (P08138 341-424): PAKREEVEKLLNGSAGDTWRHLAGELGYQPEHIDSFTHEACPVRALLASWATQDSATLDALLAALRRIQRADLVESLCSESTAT

Molecule	Kd [1] [µM]	stoichiometry N [2]
p75NTR death domain (from UniProt P08138)	49	
rP75-ΔECD-3CX-249C: rat p75NTR residues 245-425 with T249C, C279S, C379S, C416S (domain or fragment, UniProt P07174 245-425, looked up, p75 neurotrophin receptor (p75NTR), rat, UniProt P07174, residues 245-425 (transmembrane and intracellular domains); also called T249C mutant; p75-ΔECD-T249C; source: also in the membrane fraction of E. coli, not purified) TRGTCDNLIPVYCSILAAVVVGLVAYIAFKRWNSSKQNKQGANSRPVNQTPPPEGEKLHSDSGISVDSQSLHDQQTHTQTASGQALKGDGNLYSSLPLTKREEVEKLLNGDTWRHLAGELGYQPEHIDSFTHEASPVRALLASWGAQDSATLDALLAALRRIQRADIVESLSSESTATSPV		2 and 4 and 6
